The target of test [1] is human plasma glycoproteins. The test can be described thus: far-Western, overlay or dot blot; human or rat plasma diluted 1:10, boiled with LDS sample buffer and 50 mM DTT, separated on 3 to 8% polyacrylamide gradient gels, transferred to BioTraceNT; GST-SLBR 5 nM in DPBS with 1x Blocking Reagent, 90 min, room temperature; detected with anti-GST; in duplicate.
Test [2] concerns the target biotinylated Neu5Acα2-3Gal disaccharide. The test can be described thus: ELISA. The settings on record: 500 nM immobilized GST-SLBR, read off a plot. (In general: An ELISA detects its analyte on a solid surface through an enzyme-linked reagent.)
Test [3] addresses biotinylated Neu5Gcα2-3Gal disaccharide. Nature of the test: ELISA. The settings on record: 500 nM immobilized GST-SLBR, read off a plot.
A further test addresses rat plasma glycoproteins. Nature of the test: far-Western blot densitometry (ImageJ). The conditions noted are these: rat plasma; parent: est. 13; read off a plot.
The target in test [4] is human plasma glycoproteins. Nature of the test: far-Western blot densitometry (ImageJ). The conditions noted are these: human plasma; parent: est. 4.0; read off a plot.
The mark [5] stands for this setting: 1 μg/ml biotinylated disaccharide, parent: est. 0.16.
[6] abbreviates: highest ligand concentration point, about 5 μg/ml biotinylated disaccharide, parent: est. 0.31.
[7] abbreviates: 1 μg/ml biotinylated disaccharide, parent: est. 0.18.
Setting [8] is: highest ligand concentration point, about 5 μg/ml biotinylated disaccharide, parent: est. 0.41.

The values below come from paper PMC12446635.

In turn, “GST-tagged SLBRHsa V370F (domain or fragment)” had a fold decrease in total binding against wild-type SLBRHsa in test [1] of 3 fold.
Consider “GST-tagged SLBR_(SrpA) (Siglec-like binding region of the serine-rich repeat adhesin SrpA, Streptococcus sanguinis strain SK36), wild type (from UniProt A3CM52) Y368F”, for which the response came out at 0.26 A450 in test [2] (setting [5]), 0.54 A450 in test [2] (setting [6]), 0.62 A450 in test [3] (setting [7]) and 0.99 A450 in test [3] (setting [8]). For the same substance, the values for the response (Signal Intensity (x1000)) (with rat plasma glycoproteins; in test [4]) were 15 and 0.2, respectively.
In the case of “GST-tagged SLBR_(SrpA) (Siglec-like binding region of the serine-rich repeat adhesin SrpA, Streptococcus sanguinis strain SK36), wild type (from UniProt A3CM52) Y368I”, the response in test [2] (setting [5]) is 0.16 A450; in test [2] (setting [6]), 0.32 A450; in test [3] (setting [7]), 0.81 A450; in test [3] (setting [8]), 1.1 A450. Moreover, the values for the response (Signal Intensity (x1000)) (with rat plasma glycoproteins; in test [4]) were 19 and 0, respectively.
As for “GST-tagged SLBR_(SrpA) (Siglec-like binding region of the serine-rich repeat adhesin SrpA, Streptococcus sanguinis strain SK36), wild type (from UniProt A3CM52) Y368V”, the response was 0.12 A450 in test [2] (setting [5]), 0.21 A450 in test [2] (setting [6]), 0.62 A450 in test [3] (setting [7]) and 0.98 A450 in test [3] (setting [8]). Besides, the response (Signal Intensity (x1000)) in the test with rat plasma glycoproteins came out at 18; in test [4], 0.
